US7855050

Tests used:
Experiment in all cases: cell-based or functional assay
[1] = molecular target: Glycoprotein VI on human platelets of donors not sorted to one allele (random donors, 'ab' heterozygotes, or donors whose genotype is not stated) (human) (UniProt Q9HCN6)
[2] = molecular target: Glycoprotein VI, GPVI^a allele protein (SKTQH), on platelets of 'aa' homozygous donors (human) (UniProt Q9HCN6)
[3] = molecular target: Glycoprotein VI, GPVI^b allele protein (PEALN), on platelets of 'bb' homozygous donors (human) (UniProt Q9HCN6)

Collagen related peptide (CRP), triple-helical peptide containing a glycine-proline-hydroxyproline repeat motif
% of platelets binding annexin V at CRP 10 µg/ml [1]: 10 to 30% | platelet aggregation at a CRP concentration of 0.10 µg/ml (mean) [2]: 71% | platelet aggregation at a CRP concentration of 0.10 µg/ml (mean) [3]: 4.6%
